Here are results for 41 sequences from the nanobody polyreactivity screen of Harvey et al. (2022).

The nature of this data set: yeast display, Sf9 membrane polyspecificity reagent, FACS + sequencing; frameworks hold sequencing errors. The procedure, abridged:
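Nanobodies came from a synthetic yeast display library in Saccharomyces cerevisiae BJ5465, induced with galactose for 36–48 hours and stained for 1 hour at 4 °C with 10% biotinylated, detergent-solubilized Sf9 membrane reagent. Cells were enriched on streptavidin microbeads and then FACS-sorted, with low and high (top ~1%) gates set on anti-HA fluorescence for expression and streptavidin fluorescence for reagent binding. Each polyreactivity label reflects the gate a clone came from. Genes were amplified by colony PCR, sequenced by MiSeq 2 × 250 and filtered by CDR length.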
Regarding “QVQLVESGGGLVQAGGSLRLSCAASGRTFRPYAMGWYRQAPGKERELVAVITSGDSTSYADSVKGRFTISRDNAKNTVYLQMNSLKPEDTAVYYCAADSYSGYNYWGQGTQVTVSS”, the “polyreactivity (PSR sort gate)” value was “low polyreactivity”.

In the case of “QVQLVESGGGLVQAGGSLRLSCAASGRTFRQYAMGWYRQAPGKERELVAAISSSGGRTYYADSVKGRFTISRDNAKNTVYLQMNSLKPEDTAVYYCNAARYSYCFDSWGQGTQVTVSS”, the “polyreactivity (PSR sort gate)” value is listed as “high polyreactivity”.

Take “QVQLVESGGGLVQAGGSLRLSCAASGRTFRQYAMGWYRQAPGKERELVATISGGGGNTYYADSVKGRFTISRDNAKNTVYLQMNSLKPEDTAVYYCAARRRDRPVRGYDYWGQGTQVTVSS”: the “polyreactivity (PSR sort gate)” value is on record as “high polyreactivity”.

In the case of “QVQLVESGGGLVQAGGSLRLSCAASGRTFRRNAMAWYRKAPGKERELVAAISGGGSTNYADSVKGRFTISRDNAKNTVYLQMNSLKPEDTAVYYCNKRGTIWSGFWGQGTQVTVSS”, the “polyreactivity (PSR sort gate)” value is “high polyreactivity”.

Consider “QVQLVESGGGLVQAGGSLRLSCAASGRTFRRNAMGSYRQAPGKERELVATITGGGTNYADSVKGRFTISRDNAKNTVYLQMNSLKPEDTAVYYCAVGTRFYVPRRFDYWGQGTQVTVSS”, for which the “polyreactivity (PSR sort gate)” value was “high polyreactivity”.

Take “QVQLVESGGGLVQAGGSLRLSCAASGRTFRRNAMGWYRQAPGKERELVAAIRWSSGSTYYADSVKRRFTISRDNAKNTVYLQMNSLKPEDTAVYYCAKRQWGGRESFDYWAQGTQVTVSS”: the “polyreactivity (PSR sort gate)” value is recorded as “low polyreactivity”.

Turning to “QVQLVESGGGLVQAGGSLRLSCAASGRTFRRNAMGWYRQAPGKERELVAAITRSGGSTYYADSVKGRFTISRDNAKNTVYLQMNSLKPEDTAVYYCAAGTYVGLKTQYDYWGQGTQVTVSS”, the “polyreactivity (PSR sort gate)” value is listed as “high polyreactivity”.

For “QVQLVESGGGLVQAGGSLRLSCAASGRTFRRNAMGWYRQAPGKERELVADISNGDSTKYADSVKGRFTISRDNAKNTVYLHMNRLKPVDTAVYYCNAQRYRVVVYNSHGWQTRNYWGQGTQVTVSS”, the “polyreactivity (PSR sort gate)” value is “low polyreactivity”.

Consider “QVQLVESGGGLVQAGGSLRLSCAASGRTFRRYAMGWSRQAPGKERELVATISSGGSTNYADSVKGRFTISRDNAKNTVYLQMNSLKPEDTAVYYCKARGRSTVTYGYWGQGTQVTVSS”, for which the “polyreactivity (PSR sort gate)” value was “high polyreactivity”.

Regarding “QVQLVESGGGLVQAGGSLRLSCAASGRTFRRYAMGWYRQAPGKERELVAAISFGGRTYYADSVKGRFTISRDNAKNTVYLQMNSLKPEDTAVYYCAVRSYDQLIVPRDYWGQGTQVTVSS”, the “polyreactivity (PSR sort gate)” value was “high polyreactivity”.

With “QVQLVESGGGLVQAGGSLRLSCAASGRTFRRYAMGWYRQAPGKERELVAAISRNGGSTYYADSVKGRFTISRDNAKNTVYLQMNSLKPEDTAVYYCNAVTYGSYYYWGQGTQVTVSS”, the “polyreactivity (PSR sort gate)” value was “high polyreactivity”.

Take “QVQLVESGGGLVQAGGSLRLSCAASGRTFRRYAMGWYRQAPGKERELVAGISRSGVSSYYADSVKGRFTISRDNAKNTVYLQMNSLKPEDTAVYYCATRYVPTLRSSGDYWGQGTQVTVSS”: the “polyreactivity (PSR sort gate)” value is given as “high polyreactivity”.

In the case of “QVQLVESGGGLVQAGGSLRLSCAASGRTFRRYAMGWYRQAPGKERELVATITNAGSTYYADSVKGRFTISRDNAKNTVYLQMNSLKPEDTAVYYCAARVPYISDYWGQGTQVTVSS”, the “polyreactivity (PSR sort gate)” value is given as “low polyreactivity”.

Turning to “QVQLVESGGGLVQAGGSLRLSCAASGRTFRRYAMGWYRQAPGKERELVATITNAGSTYYADSVKGRFTISSDNAKNTVYLQMNSLKPEDTSVYYCAARVPYKSDYWGQGTQVTVSS”, the “polyreactivity (PSR sort gate)” value is on record as “low polyreactivity”.

In the case of “QVQLVESGGGLVQAGGSLRLSCAASGRTFRRYAMGWYRQAPGKERELVATITSNGGSTYYADSVKGRFTISRDNAKNTVYLQMNSLKPEDTAVYYCARDLTYYRSRYDYWGQGTQVTVSS”, the “polyreactivity (PSR sort gate)” value is reported as “high polyreactivity”.

Take “QVQLVESGGGLVQAGGSLRLSCAASGRTFRRYTMGWYTQAPGKVRELVAAITTSGGSTYYADSVKGRFTISRDNAKHTVYLQMNSLKPEDTAVYYCAATRRYSGDFWGQGTQVTVSS”: the “polyreactivity (PSR sort gate)” value was “high polyreactivity”.

As to “QVQLVESGGGLVQAGGSLRLSCAASGRTFRRYVMGGYRQAPGKERELVATITSGGRTNYADSVKGRFTISRDNAKNTVYLQMNSLKPEDTAVYYCNAVRIGLRYYYWGQGTQVTVSS”, the “polyreactivity (PSR sort gate)” value is reported as “low polyreactivity”.

With “QVQLVESGGGLVQAGGSLRLSCAASGRTFRRYVMGWYRQAPGKERELVAAIRWTGGSTYYADSVKGRFTISRDIAKNTVYLQMNSLKPEDTAVYYWAASSYICYGYWGQGTQVTVSS”, the “polyreactivity (PSR sort gate)” value was “high polyreactivity”.

As for “QVQLVESGGGLVQAGGSLRLSCAASGRTFRSNAMGWYRQAPGKERELVAAISKGGDRTYYADSVKGRFTISRDNAKNNVYLHMNSLKPEDTAVYYCAARYTPSRYYYWGQGTQVTVSS”, the “polyreactivity (PSR sort gate)” value is listed as “high polyreactivity”.

Take “QVQLVESGGGLVQAGGSLRLSCAASGRTFRSYAMGWYRQAPGKDRELVAAISYGGGRTFYADSVKGRFTISRDNEKNTVYLQMNSLKPEDTAVYYCNAAFPRSYRFDYWGQGTQLTVSS”: the “polyreactivity (PSR sort gate)” value is reported as “high polyreactivity”.

For “QVQLVESGGGLVQAGGSLRLSCAASGRTFRSYAMGWYRQAPGKEREFVAAISRSGASTRYADSVKGRFTISRDNAKNTVYLQMNSLKPEDTAVYYCAAVWPDVRGYDYWGQGTQVTVSS”, the “polyreactivity (PSR sort gate)” value was “high polyreactivity”.

For “QVQLVESGGGLVQAGGSLRLSCAASGRTFRSYAMGWYRQAPGKERELVAAITSGGSTYYADSVKGRFTISRDNAKNTVYLQMNSLKPEDTAVYYCARGDHVGSAGYDYWGQGTQVTVSS”, the “polyreactivity (PSR sort gate)” value was “low polyreactivity”.

Regarding “QVQLVESGGGLVQAGGSLRLSCAASGRTFRSYAMGWYRQAPGKERELVAGISYNGGSTYYADSVKGRFTISRDNAKNTVYLQMNSLKPEDTAVYYCAATDHYRLYDYWGLGTQVTVSS”, the “polyreactivity (PSR sort gate)” value is given as “low polyreactivity”.

Turning to “QVQLVESGGGLVQAGGSLRLSCAASGRTFRSYAMGWYRQAPGKERELVAVISSDGSTYYADSVKGRFTISRDNAKNTVYLQMNSLKPEDTAVYYCAAEYTFEEIGGVEFDYWGQGTQVTVSS”, the “polyreactivity (PSR sort gate)” value is “low polyreactivity”.

For the sequence “QVQLVESGGGLVQAGGSLRLSCAASGRTFRSYVMGWYRQAPGKERELVAAITRSGGSTYYADSVKGRFTISRDNAKNTVYLQMNSLKPEDTAVYYCATDRWYYYPDYYPYGEYDYWGQGTQVTVSS”, the “polyreactivity (PSR sort gate)” value is reported as “low polyreactivity”.

For “QVQLVESGGGLVQAGGSLRLSCAASGRTFRTYTMGWYRQAPGKEREFVAAITSSGASTYYADSVKGRFTISRDNAKNTVYLEMNSLKPEDTAVYYCAARYGRRLVWVPALLYDYWGQGTQVTVSS”, the “polyreactivity (PSR sort gate)” value is on record as “high polyreactivity”.

Turning to “QVQLVESGGGLVQAGGSLRLSCAASGRTFRTYTMGWYRQAPGKERELVAAIRSIDGITYYADSVKGRFTISRDNAKTTVDLPKNSLKPEDTAVYYCAARYTASKPMGYWGQGTQVTVSS”, the “polyreactivity (PSR sort gate)” value is recorded as “high polyreactivity”.

As to “QVQLVESGGGLVQAGGSLRLSCAASGRTFRTYVMGWYRQAPGKEREFVAGITWSSGSTRYADSVKGRFTISRDNAKNTVYLQMNSLKPEDTAVYYCAASRVHSYNPGYPRYYYWGQGTQVTVSS”, the “polyreactivity (PSR sort gate)” value is on record as “high polyreactivity”.

Regarding “QVQLVESGGGLVQAGGSLRLSCAASGRTFRVNAMGWYRQAPGKERELVAAITWNGGSTYYADSVKGRFTISRDNAKNTVYLQMNSLKPEDTAVYYCAAKGARYTSRGYYWGQGTQVTVSS”, the “polyreactivity (PSR sort gate)” value is listed as “high polyreactivity”.

Regarding “QVQLVESGGGLVQAGGSLRLSCAASGRTFRVYAIGWYRQAPGKEREFVATISVRGGSTYYADSVKGRFTISRDNAKNNVYLQMNSLKPEDTAVYFCAADSYPYVYALYDYWGQGTQVTVSS”, the “polyreactivity (PSR sort gate)” value is “low polyreactivity”.

Take “QVQLVESGGGLVQAGGSLRLSCAASGRTFRVYAMGWYRQAPGKERELVAAIRTDDSTNYADSVKGRFTISRDNAKNTVYLQMNSLKPEDTAVYYCNAEGQFTWLGRRRHKFEYWGQGTQVTVSS”: the “polyreactivity (PSR sort gate)” value is on record as “low polyreactivity”.

Regarding “QVQLVESGGGLVQAGGSLRLSCAASGRTFRVYVMGWYRQAPGKERELVAAIRSDASTNYADSVKGRFTISRDNAKNTVYLQMISLKPEDTAFYYCAARRGKSAGGYGDYYWGQGTQVTVSS”, the “polyreactivity (PSR sort gate)” value is on record as “high polyreactivity”.

In the case of “QVQLVESGGGLVQAGGSLRLSCAASGRTFRWNAMGWYRQAPGKERELVARISWRGGSTYYADSVKGRFTISRDNAKNTVYLQMNSLKPEDTAVYYCAATSPYYRTGYDYWGQGTQVTVSS”, the “polyreactivity (PSR sort gate)” value is reported as “high polyreactivity”.

With “QVQLVESGGGLVQAGGSLRLSCAASGRTFRWTAMGWYRQAPGKERELVAAISYSGGSTYYADSVKGRFTISRDNAKNTVYLQMNSLKPEDTAVYYCAKAYSWYPIIRGLDSWGQGTQVTVSS”, the “polyreactivity (PSR sort gate)” value was “high polyreactivity”.

In the case of “QVQLVESGGGLVQAGGSLRLSCAASGRTFRWYAMGWYRQAPGKERELVAAISGSGDRTYYADSVKGRFTISRDNAKNTVYLQMNSLKPEDTAVYYCNKAYLLYYTYARGDYWGQGTQVTVSS”, the “polyreactivity (PSR sort gate)” value is on record as “high polyreactivity”.

In the case of “QVQLVESGGGLVQAGGSLRLSCAASGRTFRYNAMGWYREAPGKERELVAAISTRGGSTYYADSVKGRFTISRDNAKNTVYLQMNSLKPEDTAVYYCAVTRRFPGHFEDYYWGQGTQVTVSS”, the “polyreactivity (PSR sort gate)” value is reported as “low polyreactivity”.

Take “QVQLVESGGGLVQAGGSLRLSCAASGRTFRYNAMGWYRQAPGKERELVAAITGGGSTYYADSVKGRFTISRDTAKNTVYLQMNSLKPEDTAVYYCAAANWRRIDYRYRFDYWGQGTQVTVSS”: the “polyreactivity (PSR sort gate)” value is “high polyreactivity”.

In the case of “QVQLVESGGGLVQAGGSLRLSCAASGRTFRYYAMGWYIQAPGKERELVAAISWRGGSTYYAYSVKGRFTLSRDYAKNTVYLQINSLKPEDTAVYYCAAGILFGHYDYWGQATQVTVSS”, the “polyreactivity (PSR sort gate)” value is recorded as “high polyreactivity”.

For “QVQLVESGGGLVQAGGSLRLSCAASGRTFRYYAMGWYRPAPGKERELVAAITSGGSTYYADSVKGRFTISRDNAKNTVYLQMNSLKPEDTAVYYCNKDFTRTWTRHGDDYWGQGTQVTVSS”, the “polyreactivity (PSR sort gate)” value is on record as “high polyreactivity”.

As to “QVQLVESGGGLVQAGGSLRLSCAASGRTFRYYAMGWYRPAPGKERELVAAITSGGTSTYYADSVKGRFTISRDNAKNTVYLQMYSLKPEDTAVYYCAAGRRSYSFHNVVRGYDYWGQGTQVTVSS”, the “polyreactivity (PSR sort gate)” value is “high polyreactivity”.

In the case of “QVQLVESGGGLVQAGGSLRLSCAASGRTFRYYAMGWYRQAPGKERELVAAIRANGGSTYYADSVKGRFTISRDNAKNIVYLQMNSLKPEDTAVYYCAALYRRYPYHYDSWGQGTQVTVSS”, the “polyreactivity (PSR sort gate)” value is listed as “high polyreactivity”.
